Measurements: paper PMC8639739, “Catalytic flexibility of rice glycosyltransferase OsUGT91C1 for the production of palatable steviol glycosides” (Nature Communications, 2021)

Legend:
OsUGT91C1 = target: T1, OsUGT91C1 (Oryza sativa, UniProt Q0DPB7); experiment: X-ray crystal structure; assay type: binding; conditions: complexes with Reb E, ST or STB; UDP-glucose site
T1 construct: gene Os03g0702000; synthetic coding region in pET28b, His-tagged, E. coli BL21(DE3); HisTrap and gel filtration; tag removal not mentioned; monomer
T1 sequence (Q0DPB7 1-462): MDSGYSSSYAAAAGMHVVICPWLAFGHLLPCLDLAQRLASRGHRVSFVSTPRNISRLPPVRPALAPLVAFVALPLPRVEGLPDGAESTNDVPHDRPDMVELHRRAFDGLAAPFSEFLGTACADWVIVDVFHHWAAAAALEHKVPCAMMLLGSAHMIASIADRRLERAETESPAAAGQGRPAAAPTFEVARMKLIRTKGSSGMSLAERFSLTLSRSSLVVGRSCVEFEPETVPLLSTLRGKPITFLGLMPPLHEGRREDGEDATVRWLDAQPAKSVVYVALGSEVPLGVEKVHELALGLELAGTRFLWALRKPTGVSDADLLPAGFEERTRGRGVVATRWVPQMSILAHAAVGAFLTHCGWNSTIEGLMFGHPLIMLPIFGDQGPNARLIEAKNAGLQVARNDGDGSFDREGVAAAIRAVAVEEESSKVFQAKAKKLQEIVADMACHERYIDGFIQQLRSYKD

[1] = substrate: C=C1C[C@@]23CC[C@H]4[C@@](C)(CCC[C@@]4(C)C(=O)O[C@@H]4O[C@H](CO)[C@@H](O)[C@H](O)[C@H]4O)[C@@H]2CC[C@]1(O[C@@H]1O[C@H](CO)[C@@H](O)[C@H](O)[C@H]1O)C3; experiment: UDP-Glo glycosyltransferase assay, Michaelis-Menten fit; assay type: biochemical, Oryza sativa; conditions: 200 μM UDP-glucose; combined beta(1-2) glucosylation at R1 and R2
[2] = substrate: C=C1C[C@@]23CC[C@H]4[C@@](C)(CCC[C@@]4(C)C(=O)O)[C@@H]2CC[C@]1(O[C@@H]1O[C@H](CO)[C@@H](O)[C@H](O)[C@H]1O)C3; experiment: as above; assay type: biochemical, Oryza sativa; conditions: 200 μM UDP-glucose; beta(1-2) glucosylation at R1
purified protein = substrate: C=C1C[C@@]23CC[C@H]4[C@@](C)(CCC[C@@]4(C)C(=O)O[C@@H]4O[C@H](CO)[C@@H](O)[C@H](O)[C@H]4O)[C@@H]2CC[C@]1(O[C@@H]1O[C@H](CO)[C@@H](O)[C@H](O[C@@H]2O[C@H](CO)[C@@H](O)[C@H](O)[C@H]2O)[C@H]1O[C@@H]1O[C@H](CO)[C@@H](O)[C@H](O)[C@H]1O)C3; experiment: purified protein; conditions: 200 μM UDP-glucose; beta(1-2) glucosylation at R2
[3] = substrate: C=C1C[C@@]23CC[C@H]4[C@@](C)(CCC[C@@]4(C)C(=O)O)[C@@H]2CC[C@]1(O[C@@H]1O[C@H](CO)[C@@H](O)[C@H](O)[C@H]1O[C@@H]1O[C@H](CO)[C@@H](O)[C@H](O)[C@H]1O)C3; experiment: UDP-Glo glycosyltransferase assay, Michaelis-Menten fit; assay type: biochemical, Oryza sativa; conditions: 200 μM UDP-glucose; beta(1-6) glucosylation at R1; crystal structure with UDP, R1 end at active site

Question: `O=c1ccn([C@@H]2O[C@H](COP(=O)(O)OP(=O)(O)O)[C@@H](O)[C@H]2O)c(=O)[nH]1` [UDP] was tested. Which X-ray crystal structure (OsUGT91C1) did it give?
Answer: UDP is bound identically in all four complexes

B1: OsUGT91C1 (Oryza sativa Japonica Group; F208M) (protein)
chain: MDSGYSSSYAAAAGMHVVICPWLAFGHLLPCLDLAQRLASRGHRVSFVSTPRNISRLPPVRPALAPLVAFVALPLPRVEGLPDGAESTNDVPHDRPDMVELHRRAFDGLAAPFSEFLGTACADWVIVDVFHHWAAAAALEHKVPCAMMLLGSAHMIASIADRRLERAETESPAAAGQGRPAAAPTFEVARMKLIRTKGSSGMSLAERMSLTLSRSSLVVGRSCVEFEPETVPLLSTLRGKPITFLGLMPPLHEGRREDGEDATVRWLDAQPAKSVVYVALGSEVPLGVEKVHELALGLELAGTRFLWALRKPTGVSDADLLPAGFEERTRGRGVVATRWVPQMSILAHAAVGAFLTHCGWNSTIEGLMFGHPLIMLPIFGDQGPNARLIEAKNAGLQVARNDGDGSFDREGVAAAIRAVAVEEESSKVFQAKAKKLQEIVADMACHERYIDGFIQQLRSYKD
notes: synthetic coding region in pET28b, His-tagged, E. coli BL21(DE3); HisTrap and gel filtration; tag removal not mentioned; monomer
Question: Which Km [1] does the source give for B1 here?
Answer: 20.9 ± 1.7 µM

Question: And the kcat [1]?
Answer: 0.04 ± 0.00167 s⁻¹

Question: And the kcat/Km [1]?
Answer: 1910 M⁻¹ s⁻¹

Question: And the Km [2]?
Answer: 18.7 ± 1.7 µM

Question: And the kcat [2]?
Answer: 0.065 ± 0.00167 s⁻¹

Question: And the kcat/Km [2]?
Answer: 3480 M⁻¹ s⁻¹

Question: And the Km (purified protein)?
Answer: 25.2 ± 2.0 µM

Question: What about the kcat (purified protein) of the same molecule?
Answer: 0.0483 s⁻¹

Question: What about the kcat/Km (purified protein) of the same molecule?
Answer: 1920 M⁻¹ s⁻¹

B2: OsUGT91C1 (Oryza sativa Japonica Group; F379A) (protein)
chain: MDSGYSSSYAAAAGMHVVICPWLAFGHLLPCLDLAQRLASRGHRVSFVSTPRNISRLPPVRPALAPLVAFVALPLPRVEGLPDGAESTNDVPHDRPDMVELHRRAFDGLAAPFSEFLGTACADWVIVDVFHHWAAAAALEHKVPCAMMLLGSAHMIASIADRRLERAETESPAAAGQGRPAAAPTFEVARMKLIRTKGSSGMSLAERFSLTLSRSSLVVGRSCVEFEPETVPLLSTLRGKPITFLGLMPPLHEGRREDGEDATVRWLDAQPAKSVVYVALGSEVPLGVEKVHELALGLELAGTRFLWALRKPTGVSDADLLPAGFEERTRGRGVVATRWVPQMSILAHAAVGAFLTHCGWNSTIEGLMFGHPLIMLPIAGDQGPNARLIEAKNAGLQVARNDGDGSFDREGVAAAIRAVAVEEESSKVFQAKAKKLQEIVADMACHERYIDGFIQQLRSYKD
notes: as for B1
Question: Which results are given for B2?
Answer: Km [1]: 16.5 ± 2.6 µM; kcat [1]: 0.045 ± 0.00167 s⁻¹; kcat/Km [1]: 2730 M⁻¹ s⁻¹; Km [2]: 19.0 ± 2.6 µM; kcat [2]: 0.0967 ± 0.00333 s⁻¹; kcat/Km [2]: 5090 M⁻¹ s⁻¹; Km (purified protein): 37.0 ± 2.5 µM; kcat (purified protein): 0.0193 s⁻¹; kcat/Km (purified protein): 523 M⁻¹ s⁻¹

B3: OsUGT91C1 (Oryza sativa Japonica Group; F208M/F379A) (protein)
chain: MDSGYSSSYAAAAGMHVVICPWLAFGHLLPCLDLAQRLASRGHRVSFVSTPRNISRLPPVRPALAPLVAFVALPLPRVEGLPDGAESTNDVPHDRPDMVELHRRAFDGLAAPFSEFLGTACADWVIVDVFHHWAAAAALEHKVPCAMMLLGSAHMIASIADRRLERAETESPAAAGQGRPAAAPTFEVARMKLIRTKGSSGMSLAERMSLTLSRSSLVVGRSCVEFEPETVPLLSTLRGKPITFLGLMPPLHEGRREDGEDATVRWLDAQPAKSVVYVALGSEVPLGVEKVHELALGLELAGTRFLWALRKPTGVSDADLLPAGFEERTRGRGVVATRWVPQMSILAHAAVGAFLTHCGWNSTIEGLMFGHPLIMLPIAGDQGPNARLIEAKNAGLQVARNDGDGSFDREGVAAAIRAVAVEEESSKVFQAKAKKLQEIVADMACHERYIDGFIQQLRSYKD
notes: as for B1
Question: What does the source list for B3?
Answer: Km [1]: 11.7 ± 1.0 µM; kcat [1]: 0.0467 ± 0.00167 s⁻¹; kcat/Km [1]: 3990 M⁻¹ s⁻¹; Km [2]: 9.7 ± 1.9 µM; kcat [2]: 0.0583 ± 0.00167 s⁻¹; kcat/Km [2]: 6010 M⁻¹ s⁻¹; Km (purified protein): 15.1 ± 2.6 µM; kcat (purified protein): 0.0283 s⁻¹; kcat/Km (purified protein): 1880 M⁻¹ s⁻¹

B4: OsUGT91C1 (Oryza sativa Japonica Group) (protein)
chain: MDSGYSSSYAAAAGMHVVICPWLAFGHLLPCLDLAQRLASRGHRVSFVSTPRNISRLPPVRPALAPLVAFVALPLPRVEGLPDGAESTNDVPHDRPDMVELHRRAFDGLAAPFSEFLGTACADWVIVDVFHHWAAAAALEHKVPCAMMLLGSAHMIASIADRRLERAETESPAAAGQGRPAAAPTFEVARMKLIRTKGSSGMSLAERFSLTLSRSSLVVGRSCVEFEPETVPLLSTLRGKPITFLGLMPPLHEGRREDGEDATVRWLDAQPAKSVVYVALGSEVPLGVEKVHELALGLELAGTRFLWALRKPTGVSDADLLPAGFEERTRGRGVVATRWVPQMSILAHAAVGAFLTHCGWNSTIEGLMFGHPLIMLPIFGDQGPNARLIEAKNAGLQVARNDGDGSFDREGVAAAIRAVAVEEESSKVFQAKAKKLQEIVADMACHERYIDGFIQQLRSYKD
notes: as for B1
Question: Which Km [1] does the source give for B4 here?
Answer: 49.5 ± 5.3 µM

Question: And the kcat [1]?
Answer: 0.0333 ± 0.00167 s⁻¹

Question: And the kcat/Km [1]?
Answer: 673 M⁻¹ s⁻¹

Question: And the Km [2]?
Answer: 24.9 ± 2.5 µM

Question: What about the kcat [2] of the same molecule?
Answer: 0.0483 ± 0.00167 s⁻¹

Question: And the kcat/Km [2]?
Answer: 1940 M⁻¹ s⁻¹

Question: And the Km [3]?
Answer: 71 ± 12 µM

Question: And the kcat [3]?
Answer: 0.0105 ± 0.0005 s⁻¹

Question: And the kcat/Km [3]?
Answer: 148 M⁻¹ s⁻¹

Question: What about the Km (purified protein) of the same molecule?
Answer: 45.7 ± 3.0 µM

Question: And the kcat (purified protein)?
Answer: 0.0203 s⁻¹

Question: And the kcat/Km (purified protein)?
Answer: 445 M⁻¹ s⁻¹
